# Reference: US20130203167
# Target: WDR5-RbBP5-Ash2L subcomplex (UniProt P61964)
substance,measurement,value
MLL^3745(R3765A),H3K4 dimethylation activity of the MLL1 core complex (MALDI-TOF mass spectrometry),a loss of H3K4 dimethylation activity of the MLL1 core complex when Arg-3765 of the MLL1 component is replaced by an alanine
